The supplement of paper PMC7877785
± gives the uncertainty stated by the source.

Assay: self-splicing fitness, log relative to wild type (ln ratio); higher = more splicing; Tetrahymena group I intron in knt gene, E. coli kanamycin selection, DiMSum; sequences stand for … in CUCUCU…GGAGGGAAAAGUUAUCAGGCAUGCACCUGGUAGCUAGUCUUUAAACCAAUAGAUUGCAUCGGUUUAAAAGGCAAGACCGUCAAAUUGCGGGAAAGGGGUCAACAGCCGUUCAGUACCAAGUCUCAGGGGAAACUUUGAGAUGGCCUUGCAAAGGGUAUGGUAAUAAGCUGACGGACAUGGUCCUAACCACGCAGCCAAGUCCUAAGUCAACAGAUCUUCUGUUGAUAUGGAUGCAGUUCACAGACUAAAUGUCGGUCGGGGAAGAUGUAUUCUUCUCAUAAGAUAUAGUCGGACCUCUCCUUAAUGGGAGCUAGCGGAUGAAGUGAUGCAACACUGGAGCCGCUGGGAACUAAUUUGUAUGCGAAAGUAUAUUGAUUAGUUUUGGAGUACUCGUGGUCG
Procedure, shortened: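 Library with all eight P1ex-region intron nucleotides randomised, intron inside the knt kanamycin-resistance gene on pET-22b(+), in E. coli BL21(DE3). Cells grew overnight at 37°C or 30°C on LB agar with or without 25 μg/mL kanamycin (plus 100 μg/mL carbenicillin, 50 μM IPTG, 0.2% rhamnose), in six replicate transformations. Pooled colonies were amplicon-sequenced on Illumina HiSeq 2500. DiMSum fitness is the error-weighted combination of wild-type-normalised replicate fold changes, kanamycin versus none.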

| Sequence | self-splicing fitness (ln) (30 °C) | self-splicing fitness (ln) (37 °C) |
| --- | --- | --- |
| UAUCAGCAAUAUUACGUACU | -1.57 ± 0.089 | -0.383 ± 0.1 |
| UAUCAGCAAUAUUACGUCAU | -1.88 ± 0.13 | -1.42 ± 0.15 |
| UAUCAGCAAUAUUACGUCUG | -0.947 ± 0.076 | -0.205 ± 0.1 |
| UAUCAGCAAUAUUACGUGCA | -0.589 ± 0.054 | 0.447 ± 0.078 |
| UAUCAGCAAUAUUACGUGUC | -4.01 ± 0.17 | -1.79 ± 0.12 |
| UAUCAGCAAUAUUACGUUUU | -2.74 ± 0.084 | -1.4 ± 0.085 |
| UAUGAGCAAUAUUACGACAG | – | -1.78 ± 0.36 |
| UAUGAGCAAUAUUACGACUG | -1.23 ± 0.12 | -0.328 ± 0.14 |
| UAUGAGCAAUAUUACGAUAA | -3.74 ± 0.33 | -2.74 ± 0.27 |
| UAUGAGCAAUAUUACGCAUU | -3.57 ± 0.25 | -2.15 ± 0.22 |
| UAUGAGCAAUAUUACGCCAA | – | -2.51 ± 0.37 |
| UAUGAGCAAUAUUACGCCGA | -2.04 ± 0.34 | -1.73 ± 0.26 |
| UAUGAGCAAUAUUACGCCGC | -1.9 ± 0.31 | -1.02 ± 0.42 |
| UAUGAGCAAUAUUACGCGCU | -3.68 ± 0.31 | -2.64 ± 0.28 |
| UAUGAGCAAUAUUACGGACG | -2.79 ± 0.25 | -1.19 ± 0.23 |
| UAUGAGCAAUAUUACGGCGC | -3.47 ± 0.48 | -1.46 ± 0.29 |
| UAUGAGCAAUAUUACGGCUG | -1.01 ± 0.15 | -0.14 ± 0.19 |
| UAUGAGCAAUAUUACGGGCG | -2.75 ± 0.16 | -2.12 ± 0.2 |
| UAUGAGCAAUAUUACGGGCU | – | -1.8 ± 0.47 |
| UAUGAGCAAUAUUACGGGGU | -2.98 ± 0.21 | -2.2 ± 0.22 |
| UAUGAGCAAUAUUACGUCCA | -2.26 ± 0.26 | -2.86 ± 0.4 |
| UAUGAGCAAUAUUACGUGGG | -3.55 ± 0.25 | -3.94 ± 0.39 |
| UAUGAGCAAUAUUACGUGUC | -3.77 ± 0.28 | -3.2 ± 0.4 |
| UAUGAGCAAUAUUACGUUCA | -1.29 ± 0.2 | -0.652 ± 0.22 |
| UAUGAGCAAUAUUACGUUUU | -4.02 ± 0.32 | -2.45 ± 0.23 |
| UAUUAGCAAUAUUACGAAUG | -0.433 ± 0.082 | -0.322 ± 0.11 |

| Sequence | self-splicing fitness (ln) (30 °C) | self-splicing fitness (ln) (37 °C) |
| --- | --- | --- |
| UAUUAGCAAUAUUACGCAGA | -1.96 ± 0.28 | -1.63 ± 0.23 |
| UAUUAGCAAUAUUACGCCAG | -1.17 ± 0.28 | – |
| UAUUAGCAAUAUUACGCGGU | -3.62 ± 0.36 | -1.8 ± 0.37 |
| UAUUAGCAAUAUUACGCUAA | – | -1.1 ± 0.46 |
| UAUUAGCAAUAUUACGGACC | -1.51 ± 0.43 | – |
| UAUUAGCAAUAUUACGGAGG | -2.95 ± 0.28 | -1.84 ± 0.34 |
| UAUUAGCAAUAUUACGGCAA | -1.06 ± 0.14 | -0.784 ± 0.15 |
| UAUUAGCAAUAUUACGGCAU | -1.99 ± 0.16 | -0.541 ± 0.12 |
| UAUUAGCAAUAUUACGGCCU | -0.879 ± 0.21 | -0.611 ± 0.27 |
| UAUUAGCAAUAUUACGGCGC | -1.74 ± 0.13 | -0.453 ± 0.17 |
| UAUUAGCAAUAUUACGGCUC | -0.997 ± 0.4 | 0.595 ± 0.44 |
| UAUUAGCAAUAUUACGGCUU | -1.35 ± 0.13 | -0.478 ± 0.17 |
| UAUUAGCAAUAUUACGGGAA | -0.606 ± 0.27 | -1.45 ± 0.31 |
| UAUUAGCAAUAUUACGGGGU | – | -1.52 ± 0.38 |
| UAUUAGCAAUAUUACGUAAA | -2.63 ± 0.25 | -1.09 ± 0.38 |
| UAUUAGCAAUAUUACGUCCU | -1.69 ± 0.2 | -0.635 ± 0.21 |
| UAUUAGCAAUAUUACGUUGC | -3.57 ± 0.31 | -2.59 ± 0.25 |
| UAUUAGCAAUAUUACGUUGU | -3.93 ± 0.34 | -3.04 ± 0.4 |
| UCAAAGCAAUAUUACGAGAA | -3.28 ± 0.34 | -1.48 ± 0.25 |
| UCAAAGCAAUAUUACGAGCG | -0.712 ± 0.088 | -0.172 ± 0.11 |
| UCAAAGCAAUAUUACGAGUC | -3.79 ± 0.21 | -2.26 ± 0.22 |
| UCAAAGCAAUAUUACGCAAC | -4.31 ± 0.42 | – |
| UCAAAGCAAUAUUACGCGAU | – | -1.64 ± 0.23 |
| UCAAAGCAAUAUUACGCGCA | -0.442 ± 0.066 | -0.207 ± 0.077 |
| UCAAAGCAAUAUUACGCGCG | -0.683 ± 0.082 | 0.256 ± 0.097 |
| UCAAAGCAAUAUUACGCGGG | -3.64 ± 0.19 | -2.14 ± 0.16 |

| Sequence | self-splicing fitness (ln) (30 °C) | self-splicing fitness (ln) (37 °C) |
| --- | --- | --- |
| UCAAAGCAAUAUUACGCUAG | -1.25 ± 0.076 | -1.29 ± 0.1 |
| UCAAAGCAAUAUUACGGAGU | -3.11 ± 0.13 | -1.69 ± 0.14 |
| UCAAAGCAAUAUUACGGCAU | -2.94 ± 0.14 | -2.75 ± 0.14 |
| UCAAAGCAAUAUUACGGCCU | – | -1.28 ± 0.17 |
| UCAAAGCAAUAUUACGGCGA | -0.708 ± 0.074 | -0.462 ± 0.068 |
| UCAAAGCAAUAUUACGGGGU | -3.42 ± 0.17 | -3.33 ± 0.26 |
| UCAAAGCAAUAUUACGGGUA | -0.981 ± 0.096 | 0.505 ± 0.093 |
| UCAAAGCAAUAUUACGUAAU | -4.1 ± 0.21 | -3.66 ± 0.21 |
| UCAAAGCAAUAUUACGUGGC | -3.62 ± 0.32 | -2.45 ± 0.32 |
| UCAAAGCAAUAUUACGUGUA | -1.78 ± 0.07 | -0.388 ± 0.066 |
| UCAAAGCAAUAUUACGUUUA | -2.71 ± 0.16 | -2.51 ± 0.18 |
| UCACAGCAAUAUUACGAAAC | -3.36 ± 0.37 | -2.7 ± 0.25 |
| UCACAGCAAUAUUACGAAGG | -1.55 ± 0.097 | -0.755 ± 0.12 |
| UCACAGCAAUAUUACGACUC | -3.43 ± 0.12 | -1.44 ± 0.13 |
| UCACAGCAAUAUUACGAGGA | -1.73 ± 0.13 | -1.65 ± 0.13 |
| UCACAGCAAUAUUACGAGUG | -2.04 ± 0.09 | -0.607 ± 0.09 |
| UCACAGCAAUAUUACGAUCU | -2.71 ± 0.1 | -1.78 ± 0.11 |
| UCACAGCAAUAUUACGCAAG | -2.65 ± 0.17 | -1.11 ± 0.15 |
| UCACAGCAAUAUUACGCACA | -0.445 ± 0.088 | -0.743 ± 0.12 |
| UCACAGCAAUAUUACGCAGG | -3.13 ± 0.13 | -1.52 ± 0.11 |
| UCACAGCAAUAUUACGCAGU | -4.13 ± 0.21 | -2.17 ± 0.16 |
| UCACAGCAAUAUUACGCAUA | -2.02 ± 0.097 | -1.68 ± 0.093 |
| UCACAGCAAUAUUACGCAUG | -2.04 ± 0.098 | -1.58 ± 0.098 |
| UCACAGCAAUAUUACGCUUC | -4.3 ± 0.43 | -3.28 ± 0.43 |
| UCACAGCAAUAUUACGGACG | -1.22 ± 0.073 | -0.222 ± 0.091 |
| UCACAGCAAUAUUACGGACU | -2.99 ± 0.15 | -2.16 ± 0.14 |
